This is an account of results in patent US20180334496A1 (KODIAK SCIENCES, published 2018).

What is called Kd is the constant that tells how readily two partners part at equilibrium. By koff is commonly meant the first-order rate constant of dissociation. In general, kon refers to a measure of how fast the partners come together. Read a low kon as slow association.

The target in experiment [1] is T1, serum purified human Complement Factor D (human, UniProt P00746 26-253).
T1 construct: Serum purified protein flowed over the captured antibodies; also called CFD; human CFD
T1 sequence (P00746 26-253): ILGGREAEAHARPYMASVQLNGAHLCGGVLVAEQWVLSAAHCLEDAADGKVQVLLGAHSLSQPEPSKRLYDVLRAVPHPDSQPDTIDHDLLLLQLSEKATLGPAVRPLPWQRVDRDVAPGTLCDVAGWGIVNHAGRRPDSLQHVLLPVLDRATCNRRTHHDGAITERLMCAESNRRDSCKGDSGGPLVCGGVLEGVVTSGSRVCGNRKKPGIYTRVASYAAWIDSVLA
Put plainly: SPR Biacore, antibody on protein A chip, single cycle kinetics, 25 C.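 Note: antibodies captured to roughly 70 RU on the protein A surface in HBS-EP+ running buffer, with kinetic constants derived by BIAevaluation fitting.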 Background: Surface plasmon resonance follows binding to a sensor surface in real time, without labels.
Method: (§1) Antibodies were diluted to 0.5 ug/ml in HBS-EP+ buffer and captured on a protein A chip for 25 seconds to reach approximately 70 resonance units. […] Binding kinetic information was obtained by the BIAevaluation software (GE).

Experiment [2] concerns the target T1, serum purified human Complement Factor D. The experiment in a line: SPR Biacore, antibody on protein A chip, single cycle kinetics, 37 C.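 Note: antibodies captured on the protein A surface to roughly 70 RU in HBS-EP+ buffer, with rate and affinity constants fitted using BIAevaluation software.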
Method: as §1

Substitutions are numbered along the chain they refer to.

B1: 28H31S54V59D / 101V (antibody, V domains shown)
VH: EVQLVESGGGLVQPGGSLRLSCAASGYHFTSYYMNWVRQAPGKGLEWIGDINPVTGDTDYNADFKRRFTFSLDTSKSTAYLQMNSLRAEDTAVYYCTREGPSFAYWGQGTLVTVSS
VL: DIQLTQSPSSLSASVGDRVTITCRSSQTIVHSNGDTYLEWYQQKPGKAPNLLIYKVSNRFSGVPSRFSGSGSGTDFTLTISSLQPEDFATYYCFQGSHVPVTFGQGTKVEIK
notes: KCD119 TAF variant; full antibody captured on protein A
For B1, in experiment [1], the equilibrium dissociation constant (Kd) was determined as 25.1 pM, the koff worked out at 0.000167 s⁻¹ and the association rate constant (kon) was 6.65e+06 M⁻¹ s⁻¹. For the same molecule, in experiment [2], the Kd was found to be 25.7 pM, the koff was 0.000443 s⁻¹ and the kon is 1.72e+07 M⁻¹ s⁻¹.

B2: 54V59D / 101V (antibody, V domains shown)
VH: B1 VH with H28T, S31D
VL: B1 VL
notes: as for B1
In experiment [1], B2 came in with a dissociation constant Kd of 37.1 pM, a koff of 0.000258 s⁻¹ and an on-rate constant (kon) of 6.94e+06 M⁻¹ s⁻¹.

B3: 28V31S54V59D / 101V (antibody, V domains shown)
VH: B1 VH with H28V
VL: B1 VL
notes: as for B1
In the case of B3, in experiment [1], the equilibrium dissociation constant (Kd) came to 6.01 pM, the koff is 4.76e-05 s⁻¹ and the association rate constant (kon) was 7.91e+06 M⁻¹ s⁻¹. Moreover, in experiment [2], the dissociation constant Kd was found to be 51 pM, the koff came out at 0.00085 s⁻¹ and the kon was determined as 1.66e+07 M⁻¹ s⁻¹.

B4: 28K31S54V59D / 101V (antibody, V domains shown)
VH: B1 VH with H28K
VL: B1 VL
notes: as for B1
For B4, in experiment [1], binding was put at a Kd of 22.4 pM, the koff was 0.000163 s⁻¹ and the on-rate (kon) turned out to be 7.3e+06 M⁻¹ s⁻¹.

B5: 28S31S54V59D / 101V (antibody, V domains shown)
VH: B1 VH with H28S
VL: B1 VL
notes: as for B1
In experiment [1], B5 had an equilibrium dissociation constant (Kd) of 21.7 pM, a koff of 0.000166 s⁻¹ and a kon of 7.64e+06 M⁻¹ s⁻¹. Also, in experiment [2], the Kd is 72.7 pM, the koff stood at 0.000918 s⁻¹ and the kon was found to be 1.26e+07 M⁻¹ s⁻¹.

B6: 31S34I54I59D / 32W60W101V (antibody, V domains shown)
VH: B1 VH with H28T, M34I, V54I
VL: B1 VL with S32W, F60W
notes: as for B1
As to B6, in experiment [1], the dissociation constant (Kd) worked out at 17.2 pM, the koff stood at 5.69e-05 s⁻¹ and the kon was 3.31e+06 M⁻¹ s⁻¹. Further, in experiment [2], the affinity, expressed as Kd, was 31.2 pM; the koff was 0.000208 s⁻¹; the on-rate (kon) stood at 6.67e+06 M⁻¹ s⁻¹.

B7: 54V59D / 32W60W101V (antibody, V domains shown)
VH: B1 VH with H28T, S31D
VL: B1 VL with S32W, F60W
notes: as for B1
In the case of B7, in experiment [1], the Kd amounted to 6.07 pM, the dissociation rate constant (koff) was determined as 4.79e-05 s⁻¹ and the kon is 7.88e+06 M⁻¹ s⁻¹.

B8: 28I31S54V59D / 101V (antibody, V domains shown)
VH: B1 VH with H28I
VL: B1 VL
notes: as for B1
In experiment [1], B8 registered a Kd of 17.7 pM, a koff of 0.000134 s⁻¹ and a kon of 7.59e+06 M⁻¹ s⁻¹. For the same molecule, in experiment [2], the Kd amounted to 19.5 pM, the koff is 0.00039 s⁻¹ and the on-rate (kon) is 2e+07 M⁻¹ s⁻¹.

B9: 31S48V54V59D / 101V (antibody, V domains shown)
VH: B1 VH with H28T, I48V
VL: B1 VL
notes: as for B1
Consider B9, for which, in experiment [1], binding was characterised by a dissociation constant (Kd) of 16.9 pM, the off-rate (koff) is 0.000101 s⁻¹ and the kon is 5.98e+06 M⁻¹ s⁻¹.

B10: 28Q31S54V59D / 101V (antibody, V domains shown)
VH: B1 VH with H28Q
VL: B1 VL
notes: as for B1
Turning to B10, in experiment [1], the Kd worked out at 23 pM, the koff turned out to be 0.000164 s⁻¹ and the kon turned out to be 7.15e+06 M⁻¹ s⁻¹. In addition, in experiment [2], the dissociation constant (Kd) was 75.7 pM, the koff was found to be 0.00103 s⁻¹ and the kon amounted to 1.35e+07 M⁻¹ s⁻¹.
